In the RNAGym collection of RNA variant scans (doi:10.1073/pnas.2313332121):

B1: TPR t1 (parent)
chain: GACCAAUCUGCCCUCAGAGCUCGAGAACAUCUUCGGAUGCAGAGGAGGCAGGCUUCGGUGGCGCGAUAGCGCCAACGUCCUCAACCUCCAAUGCAUCCCACCACAUGAUGAUGCCUGAAGAGCCUUGGUUUUUUG

Variants of: B1
Test: polymerase ribozyme fitness, log enrichment relative to wild type (log ratio); higher = more active; in vitro selection for triplet polymerase activity
Method in brief: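 Frozen incubation at −7 °C formed the core of a single, triplicate in vitro selection round applied to PCR-built, transcribed mutant libraries of each subunit of a heterodimeric triplet polymerase ribozyme. Extended constructs were gel-excised, captured with streptavidin beads and amplified by RT-PCR, and input and output libraries were Illumina-sequenced with a filter of ≥10 input reads and ≥1 read per output. Fitness is the logarithm of genotype enrichment relative to wild-type enrichment, with inverse-variance-weighted replicate averaging, and the logarithm is base 2.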

Variant	polymerase ribozyme fitness (log ratio)
C40A A43G C53U G58A	-4.13
U55G C56A C79G C124U	-0.518
C85A G128U	-4.02
C3U A46C C56U A121U	1.54
C64A U106C	-6.82
C73A U130C	-0.0885
G42A C72U C85U	-2.92
G39A G61A U78C	-0.505
G69U A84U	0.757
C12A A75G	-0.0398
C8G C70U A74U C98U G110A	-6.03
C4U A74U	-1.1
C4U G10C G69U U125A	-2.15
A5G G45U G60A C101G U133G	-3.66
G39C G69A U112A	-3.52
U7A G10A C53U G61C	-0.31
C8U C70A C73A C97U	-3.27
C8G C86G C114A	0.194
G60U	0.0514
C8G A16U	0.648
A41G U78C C82A	-0.297

Variant	polymerase ribozyme fitness (log ratio)
A5C A24G G48U G110A C124U U131C	-4.58
A16U A84U A100U C124A U129G	-0.308
U21A A41U C70U A95U	-4.21
C20A C124G	-0.976
C73U C94A C104U G117U	-3.3
G60C C64U	-5.26
C22G G60C	-3.23
C12A G48C C72U G117U	-5.59
A2C G61C	-3.02
U21G C40G	-0.951
U14G C40A G42C C80U G120U	-3.6
G47U C53A A103C U112A G122A	-6.51
G117A U133G	-0.981
A83G A84C	-1.03
A16C C62U A83C C88G	-2.71
C11A U96G G113C U130A	-5.5
U9A A46U U59C U78A C89G U109A	-7.76
C94U C123A	0.36
C12U G36U C104U C123G	0.937
U9G G51C C56G C80G A119U	-0.301
C12U A27C C49A G61A U106A C115U	-4.69

Variant	polymerase ribozyme fitness (log ratio)
U9C A41G C64U C86A	-0.494
A46U U112G	-1.08
G61C U132A	-1.81
A27G G69U A74U	-2.9
C3U A37U A84C	-0.656
C11A C12U A37G U78A U131A	-1.88
U21A C49U	-1.1
U78C A118G	-0.499
C49A A50C G117U	-3.66
A27G A95U	-2.82
C22U C85U	-4.5
G45U C70A	-2.74
G110C A119U	-1.71
A41G G48A C80U A95G C124A	0.0211
G60A C98A C123U	-5.08
U33A C86G C114U	-4.98
C11G C49U	0.783
C80U C101A	-1.52
C73G G113C C123U G135A	-3.03
C62A C64U C114A A121U C123G	-4.48
U9G G120U	1.06

Variant	polymerase ribozyme fitness (log ratio)
A2C G39C G69U U112C	-0.882
G39C A41U C72U A74U G113U C114U A121G	-1.73
G48U G93U	-1.29
C53G C124A	0.714
A18U C40U C94U	-3.46
C15A G63A G127C	-4.4
C20U G60U C72U C94U	-1.4
A37U U130G	-1.28
G45C C79A	-2.14
C62A C123A	-0.607
C56A G69U	-0.137
A6C C13U U33A G45U G51C A68U A121U G122U	-6.98
G45U A50U	-2.62
C89G G122A	-3.38
C3U C13U G44U U55C G63A A108U U112G G113C	-6.03
A43G G63C C82G	-4.47
C62A A121C	0.464
A26C A46G G69U A74U	-5.53
C13A A18U G42U G61U C123G	-0.471
A24C C86U G110A	-5.7
U92G G120A A121C	-2.53
